{"source": "paper PMC5793090", "about": "(Toxins, 2017)", "molecules": {"B1": {"name": "Recombinant human extracellular rLu/BCAM with Fc-tag (Fc fusion)", "chain": "EVRLSVPPLVEVMRGKSVILDCTPTGTHDHYMLEWFLTDRSGARPRLASAEMQGSELQVTMHDTRGRSPPYQLDSQGRLVLAEAQVGDERDYVCVVRAGAAGTAEATARLNVFAKPEATEVSPNKGTLSVMEDSAQEIATCNSRNGNPAPKITWYRNGQRLEVPVEMNPEGYMTSRTVREASGLLSLTSTLYLRLRKDDRDASFHCAAHYSLPEGRHGRLDSPTFHLTLHYPTEHVQFWVGSPSTPAGWVREGDTVQLLCRGDGSPSPEYTLFRLQDEQEEVLNVNLEGNLTLEGVTRGQSGTYGCRVEDYDAADDVQLSKTLELRVAYLDPLELSEGKVLSLPLNSSAVVNCSVHGLPTPALRWTKDSTPLGDGPMLSLSSITFDSNGTYVCEASLPTVPVLSRTQNFTLLVQGSPELKTAEIEPKADGSWREGDEVTLICSARGHPDPKLSWSQLGGSPAEPIPGRQGWVSSSLTLKVTSALSRDGISCEASNPHGNKRHVFHFGTVSPQTSQA", "notes": "also called rLu/BCAM-Fc; recombinant Lu/BCAM; source: bought: Hölzel Diagnostika Handels GmbH"}}, "key": {"[1]": {"molecular_target": "Lu12-Fc", "assay": "SPR"}, "[2]": {"molecular_target": "B1", "assay": "SEC", "conditions": "both partners purified"}, "[3]": {"molecular_target": "B1", "assay": "small-angle X-ray scattering (SAXS)", "conditions": "both partners purified"}, "[4]": {"molecular_target": "T1, GST-CNF1 (full-length Cytotoxic Necrotizing Factor 1 of Escherichia coli as GST fusion) (Escherichia coli, UniProt Q47106 1-1014, DyLight488 Maleimide label in the flow cytometry experiments only)", "T1 chain": "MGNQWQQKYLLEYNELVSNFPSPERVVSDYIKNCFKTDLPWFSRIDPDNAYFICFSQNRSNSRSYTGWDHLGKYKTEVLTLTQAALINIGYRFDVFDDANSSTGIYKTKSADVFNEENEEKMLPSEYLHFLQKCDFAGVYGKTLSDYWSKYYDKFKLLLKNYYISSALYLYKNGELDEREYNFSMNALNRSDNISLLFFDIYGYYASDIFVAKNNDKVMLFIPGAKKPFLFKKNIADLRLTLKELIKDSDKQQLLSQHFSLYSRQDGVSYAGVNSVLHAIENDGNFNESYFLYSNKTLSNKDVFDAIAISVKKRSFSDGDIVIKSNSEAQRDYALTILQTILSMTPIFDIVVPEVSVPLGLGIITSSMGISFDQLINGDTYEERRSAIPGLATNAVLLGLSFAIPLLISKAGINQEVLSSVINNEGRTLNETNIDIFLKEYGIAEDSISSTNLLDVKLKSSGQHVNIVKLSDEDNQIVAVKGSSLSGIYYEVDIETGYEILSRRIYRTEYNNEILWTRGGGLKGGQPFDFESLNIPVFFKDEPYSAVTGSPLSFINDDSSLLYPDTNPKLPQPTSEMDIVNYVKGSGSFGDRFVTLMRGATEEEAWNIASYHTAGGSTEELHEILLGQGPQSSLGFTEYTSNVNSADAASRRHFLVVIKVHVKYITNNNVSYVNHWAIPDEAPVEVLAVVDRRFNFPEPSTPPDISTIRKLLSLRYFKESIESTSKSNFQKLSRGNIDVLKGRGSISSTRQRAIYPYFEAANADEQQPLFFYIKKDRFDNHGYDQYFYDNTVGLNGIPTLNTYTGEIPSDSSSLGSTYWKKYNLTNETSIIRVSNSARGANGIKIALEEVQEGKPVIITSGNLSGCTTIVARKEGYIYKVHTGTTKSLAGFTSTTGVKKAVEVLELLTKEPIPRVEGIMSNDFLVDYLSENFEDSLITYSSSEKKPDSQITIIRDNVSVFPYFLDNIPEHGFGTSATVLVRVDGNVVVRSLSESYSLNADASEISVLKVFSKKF", "assay": "SPR"}, "[5]": {"molecular_target": "the molecule itself", "assay": "SEC"}, "[6]": {"molecular_target": "T2, GST-CNF1 (full-length Cytotoxic Necrotizing Factor 1 of Escherichia coli as GST fusion) (Escherichia coli, UniProt Q47106 1-1014, DyLight488 Maleimide label in the flow cytometry experiments only)", "T2 construct": "also called full-length CNF1; full toxin", "T2 sequence": "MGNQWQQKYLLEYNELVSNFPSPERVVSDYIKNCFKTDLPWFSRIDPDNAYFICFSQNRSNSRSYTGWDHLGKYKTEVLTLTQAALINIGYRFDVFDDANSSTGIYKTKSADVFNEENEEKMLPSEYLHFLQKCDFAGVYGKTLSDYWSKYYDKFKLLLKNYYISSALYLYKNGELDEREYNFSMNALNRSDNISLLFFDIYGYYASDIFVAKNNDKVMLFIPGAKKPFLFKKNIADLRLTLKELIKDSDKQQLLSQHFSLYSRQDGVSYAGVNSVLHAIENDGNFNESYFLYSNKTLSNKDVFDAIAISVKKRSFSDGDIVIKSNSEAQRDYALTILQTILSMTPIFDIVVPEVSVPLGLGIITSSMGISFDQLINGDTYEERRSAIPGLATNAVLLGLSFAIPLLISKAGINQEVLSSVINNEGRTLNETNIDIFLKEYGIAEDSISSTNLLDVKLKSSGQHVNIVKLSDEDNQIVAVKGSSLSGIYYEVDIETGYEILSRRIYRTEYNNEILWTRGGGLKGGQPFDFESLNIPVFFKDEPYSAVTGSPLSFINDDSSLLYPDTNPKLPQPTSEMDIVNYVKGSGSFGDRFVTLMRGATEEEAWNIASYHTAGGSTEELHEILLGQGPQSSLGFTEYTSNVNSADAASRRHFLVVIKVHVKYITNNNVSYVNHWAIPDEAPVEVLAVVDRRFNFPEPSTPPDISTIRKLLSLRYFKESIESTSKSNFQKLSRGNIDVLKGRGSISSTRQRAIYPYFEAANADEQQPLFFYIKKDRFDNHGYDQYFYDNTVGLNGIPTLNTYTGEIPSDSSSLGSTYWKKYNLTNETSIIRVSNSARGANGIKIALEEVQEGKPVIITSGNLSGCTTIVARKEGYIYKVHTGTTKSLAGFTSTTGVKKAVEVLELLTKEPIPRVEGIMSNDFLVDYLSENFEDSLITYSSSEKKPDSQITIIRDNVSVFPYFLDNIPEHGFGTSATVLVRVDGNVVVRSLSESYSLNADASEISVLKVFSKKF", "assay": "far-Western, overlay or dot blot; CNF proteins spotted on a nitrocellulose membrane, incubated with 5 µM rLu/BCAM in TBST for 30 min, then blocked with 5% milk; bound rLu/BCAM detected with an anti-Lu/BCAM antibody", "conditions": "both partners purified"}}, "note": "Values joined by “and” are separate entries in the source; they are usually repeats but may differ in a detail not shown here. Equal entries are not always repeated."}
{"molecule": "GST-CNF1 (full-length Cytotoxic Necrotizing Factor 1 of Escherichia coli as GST fusion) (from UniProt Q47106 1-1014) (natural protein)", "values": [{"measurement": "Kd", "setting": "[1]", "result": 2, "unit": "nM"}]}
{"molecule": "CNF1 (720–1014), GST-tag removed (domain or fragment, also called CNF1 catalytic unit) SIESTSKSNFQKLSRGNIDVLKGRGSISSTRQRAIYPYFEAANADEQQPLFFYIKKDRFDNHGYDQYFYDNTVGLNGIPTLNTYTGEIPSDSSSLGSTYWKKYNLTNETSIIRVSNSARGANGIKIALEEVQEGKPVIITSGNLSGCTTIVARKEGYIYKVHTGTTKSLAGFTSTTGVKKAVEVLELLTKEPIPRVEGIMSNDFLVDYLSENFEDSLITYSSSEKKPDSQITIIRDNVSVFPYFLDNIPEHGFGTSATVLVRVDGNVVVRSLSESYSLNADASEISVLKVFSKKF", "values": [{"measurement": "stoichiometry N", "setting": "[2]", "result": 6, "unit": "Lu/BCAM per CNF1"}, {"measurement": "stoichiometry N", "setting": "[3]", "result": "1 CNF1 molecules per rLu/BCAM assembly and 2 CNF1 molecules per rLu/BCAM assembly"}]}
{"molecule": "Lu12-Fc (Fc fusion) EVRLSVPPLVEVMRGKSVILDCTPTGTHDHYMLEWFLTDRSGARPRLASAEMQGSELQVTMHDTRGRSPPYQLDSQGRLVLAEAQVGDERDYVCVVRAGAAGTAEATARLNVFAKPEATEVSPNKGTLSVMEDSAQEIATCNSRNGNPAPKITWYRNGQRLEVPVEMNPEGYMTSRTVREASGLLSLTSTLYLRLRKDDRDASFHCAAHYSLPEGRHGRLDSPTFH", "values": [{"measurement": "koff", "setting": "[4]", "result": "3e-05", "unit": "s⁻¹"}]}
{"molecule": "B1", "values": [{"measurement": "stoichiometry N", "setting": "[5]", "result": 6}, {"measurement": "binding result", "setting": "[6]", "result": "binds"}]}
